Test results as given in US7642046B2, “Method for monitoring recruitment of proteins to the intracellular domain of a receptor in intact cells” (priority 2001, dated 2010).

B1: TRAF2: TNF receptor associated factor 2, human adaptor protein expressed from pcDNA3 (protein, UniProt Q12933 1-501, looked up)
chain: MAAASVTPPGSLELLQPGFSKTLLGTKLEAKYLCSACRNVLRRPFQAQCGHRYCSFCLASILSSGPQNCAACVHEGIYEEGISILESSSAFPDNAARREVESLPAVCPSDGCTWKGTLKEYESCHEGRCPLMLTECPACKGLVRLGEKERHLEHECPERSLSCRHCRAPCCGADVKAHHEVCPKFPLTCDGCGKKKIPREKFQDHVKTCGKCRVPCRFHAIGCLETVEGEKQQEHEVQWLREHLAMLLSSVLEAKPLLGDQSHAGSELLQRCESLEKKTATFENIVCVLNREVERVAMTAEACSRQHRLDQDKIEALSSKVQQLERSIGLKDLAMADLEQKVLEMEASTYDGVFIWKISDFARKRQEAVAGRIPAIFSPAFYTSRYGYKMCLRIYLNGDGTGRGTHLSLFFVVMKGPNDALLRWPFNQKVTLMLLDQNNREHVIDAFRPDVTSSSFQRPVNDMNIASGCPLFCPVSKMEAKNSYVRDDAIFIKAIVDLTGL
modifications: full-length
notes: TNF receptor associated factor 2, human adaptor protein expressed from pcDNA3
B2: TRAF1: TNF receptor associated factor 1, adaptor protein overexpressed in 293T cells from pcDNA3 (protein, UniProt Q13077 1-416, looked up)
chain: MASSSGSSPRPAPDENEFPFGCPPTVCQDPKEPRALCCAGCLSENPRNGEDQICPKCRGEDLQSISPGSRLRTQEKAHPEVAEAGIGCPFAGVGCSFKGSPQSVQEHEVTSQTSHLNLLLGFMKQWKARLGCGLESGPMALEQNLSDLQLQAAVEVAGDLEVDCYRAPCSESQEELALQHFMKEKLLAELEGKLRVFENIVAVLNKEVEASHLALATSIHQSQLDRERILSLEQRVVELQQTLAQKDQALGKLEQSLRLMEEASFDGTFLWKITNVTRRCHESACGRTVSLFSPAFYTAKYGYKLCLRLYLNGDGTGKRTHLSLFIVIMRGEYDALLPWPFRNKVTFMLLDQNNREHAIDAFRPDLSSASFQRPQSETNVASGCPLFFPLSKLQSPKHAYVKDDTMFLKCIVETST
modifications: full-length
notes: TNF receptor associated factor 1, adaptor protein overexpressed in 293T cells from pcDNA3

Tests used:
[1] = biological target: T1, LTβR (Homo sapiens, UniProt P25942+P36941); assay: Recruitment assay with hybrid receptor (CD40 extracellular domain, LTβR transmembrane and intracellular domain); type: cell-based; conditions: 293T cells, CD40 as relative standard
T1 construct: cDNA fragments encoding for the transmembrane and cytoplasmic domains of the LTβR, TACI, the p75TNF receptor, CD27; expressed in transfected cells; host or cells: 293T
T1 sequence (P25942+P36941 fused): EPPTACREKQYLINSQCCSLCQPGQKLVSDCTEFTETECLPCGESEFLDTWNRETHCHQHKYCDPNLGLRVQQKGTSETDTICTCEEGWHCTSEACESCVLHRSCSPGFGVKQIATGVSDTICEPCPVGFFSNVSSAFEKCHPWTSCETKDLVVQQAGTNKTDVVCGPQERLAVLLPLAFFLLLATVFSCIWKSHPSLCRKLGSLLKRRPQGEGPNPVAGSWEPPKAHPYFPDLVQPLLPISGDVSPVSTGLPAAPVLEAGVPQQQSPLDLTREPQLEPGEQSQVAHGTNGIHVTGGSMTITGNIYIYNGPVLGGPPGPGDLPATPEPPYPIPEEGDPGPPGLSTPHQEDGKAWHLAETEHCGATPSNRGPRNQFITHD
Experimental: The recruitment of TRAF to CD40 can be quantitatively measured using the assay described in example 1. For that purpose, the assay conditions were adjusted in such a way that TRAF expression was in significant excess over the expression of CD40. This was the case when the TRAF expression plasmid was used at a two to three fold excess over the CD40 expression plasmid. The CD40 bound TRAF concentration was measured as described in example 1. A reference extract containing CD40/TRAF complexes served as a standard in each assay. This standard extract consisted of a large pool extract from cells that had been co-transfected with the plasmids encoding CD40/TRAF1, CD40/TRAF2, CD40/TRAF3, CD40/TRAF5 and CD40/TRAF6. The extracts were tested for the presence of CD40/TRAF complexes and the complex concentrations in each extract were arbitrarily defined as 1000 U/ml. The extracts were frozen in small aliquots and kept at −80° C. until further use. By comparing unknown samples to these extracts, it was possible to determine the relative CD40-TRAF complex concentrations in arbitrary units. The necessary normalization for sample-to-sample variations in the CD40 expression was calculated with the following formula: […]
Recruitment of various TRAFs to receptors different to CD40, was tested by the recruitment assay described in example 1 by transforming cells with expression plasmids encoding hybrids receptors comprising the extracellular domain of CD40 and transmembrane and intracellular domain of anyone of the following receptors: BCMA (Madry et al. 1998 and Hatzoglou et al. 2000) the LTβR-receptor (Mosialos et al. 1995, Crowe et al. 1994, Nakano et al. 1996), TACI (von Bulow et al. 1997, Xia et al. 2000) the p75TNFR (Rothe et al. 1994) and the CD27 (Gravestein et al. 1998, Akiba et al. 1998) (for details of constructs see example 7). Measurement of TRAF recruitment to the signalling domains of BCMA the LTβR-receptor TACI the p75TNFR or the CD27 was carried out by co-transfecting 293T cells with a plasmid encoding anyone of the above hybrid receptors together with a plasmid encoding TRAF and measurement of the TRAF/Receptor complex using the ELISA sandwich described in example 1 and the quantitation as described in example 3. The assay with the hybrid receptors is schematically represented in FIG. 4A. The results shown in FIG. 4B indicate that, using the assay monitoring recruitment in intact cells, any TRAF recruiting receptor of the TNF/NGF family can be examined with the same antibody sandwich assay described in example 1 and the amount of TRAF-receptor/CD40 hybrid complex can be monitored as described in example 3. […] Recruitment of TRAF3 to all the receptors tested is similar. […]

[2] = biological target: T2, CD40 (Homo sapiens, UniProt P25942); assay: TRAF binding to CD40 in cell lysate: separately expressed extracts mixed 1:1, ELISA; conditions: extracts mixed 1:1, over night at 4° C.
T2 construct: expressed in transfected cells; host or cells: HEK 293T
T2 sequence (P25942 21-277): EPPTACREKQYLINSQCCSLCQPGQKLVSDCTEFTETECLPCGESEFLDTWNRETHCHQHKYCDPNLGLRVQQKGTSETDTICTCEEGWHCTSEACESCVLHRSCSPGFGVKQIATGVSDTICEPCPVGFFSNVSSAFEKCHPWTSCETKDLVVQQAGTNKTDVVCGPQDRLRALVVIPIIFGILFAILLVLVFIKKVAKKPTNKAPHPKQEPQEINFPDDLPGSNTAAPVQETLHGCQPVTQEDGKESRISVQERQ
Source text: To measure TRAF recruitment to CD40 many studies relied on experimental systems that probe TRAF binding to synthetic peptides or soluble fragments of the CD40 signaling domain (Rothe et al. 1994, Hu et al. 1994, Cheng et al. 1995, Mosialos et al. 1995, Ishida et al. it 1996, Ishida et al. b 1996, Boucher et al. 1997, Pullen et al. 1998 and Pullen et al. 1999). […] Therefore, recruitment of TRAF1 and TRAF2 by CD40 intact cells versus cell lysate was compared. In the experiment, CD40 and TRAF1 or TRAF2 were co-expressed or expressed separately in 293T cells (constructs described in example 7 below). Plasmid concentrations and ratios were identical to the experiment described in example 1. After 27 hours, the cells were detergent lysed as in example 1. The extracts from 293T cells expressing only CD40 or the TRAF of interest were mixed at a 1:1 ratio and incubated over night at 4° C. Extracts expressing both CD40 and the TRAF of interest were kept under identical conditions. Then the samples were incubated on microtiter plates coated with a mAb against the extra-cellular domain of CD40 as described in example 1. After a washing step, CD40 bound TRAFs were detected with anti TRAF antibodies (example 1). Quantitation of TRAF recruited to CD40 was carried out as described in the example 3 below.

Molecule	recruitment to LTβR, folds higher than recruitment to CD40 [1]	binding to CD40 in cell lysate [2]
B1	about 60 fold	barely detectable
B2	25 fold	barely detectable
